Laboratory results as given in patent publication US20230365709A1.

Target: recombinant human CD16A (48R/158F) expressed on the surface of CHO cells (human) (UniProt P08637)
Assay: flow cytometry, CHO-huCD16A cells, apparent KD; SD 62.5

- Kd: 528 nM
B1: 2scDb-AFc-3 (protein)
chain 1: EVQLQQSGPELVKPGASVKMSCKASGYTFTDYVINWGKQRSGQGLEWIGEIYPGSGTNYYNEKFKAKATLTADKSSNIAYMQLSSLTSEDSAVYFCARRGRYGLYAMDYWGQGTSVTVSSGGSGGSGGSDIVMTQSPATLSLSPGERATLSCRSSKSLQNVNGNTYLYWFQQKPGQSPQLLIYRMSNLNSGVPDRFSGSGSGTEFTLTISSLEPEDFAVYYCMQHLEYPITFGAGTKLEIKGGSGGSGGSGGSGGSGGSGGSEVQLVESGGGLVKPGGSLKLSCAASGYTFTSYVMHWVRQAPGKGLEWIGYINPYNDGTKYNEKFQGRVTISSDKSISTAYMELSSLRSEDTAMYYCARGTYYYGTRVFDYWGQGTLVTVSSGGSGGSGGSDIQMTQTTSSLSASLGDRVTISCRASQDISNYLNWYQQKPDGTVKLLIYYTSRLHSGVPSRFSGSGSGTDYSLTINNLEQEDIATYFCQQGNTRPWTFGGGTKLEIKDKTHTCPPCPAPEFEGGPSVFLFPPKPKDTLMISRTPEVTCVVVAVSHEDPEVKFNWYVDGVEVHNAKTKPREEQYGSTYRVVSVLTVLHQDWLNGKEYKCKVSNKALPAPIEKTISKAKGQPREPQVYTLPPSREEMTKNQVSLWCLVKGFYPSDIAVEWESNGQPENNYKTTPPVLDSDGSFFLYSKLTVDKSRWQQGNVFSCSVMHEALHNHYTQKSLSLSPG
chain 2: EVQLVQSGAEVKKPGASVKVSCKASGYTFTNYYMQWVRQAPGQCLEWMGIINPSGGVTSYAQKFQGRVTMTRDTSTSTVYMELSSLRSEDTAVYYCARGSAYYYDFADYWGQGTLVTVSSGGSGGSGGSDIVMTQSPATLSLSPGERATLSCRSSKSLQNVNGNTYLYWFQQKPGQSPQLLIYRMSNLNSGVPDRFSGSGSGTEFTLTISSLEPEDFAVYYCMQHLEYPITFGAGTKLEIKGGSGGSGGSGGSGGSGGSGGSEVQLVESGGGLVKPGGSLKLSCAASGYTFTSYVMHWVRQAPGKGLEWIGYINPYNDGTKYNEKFQGRVTISSDKSISTAYMELSSLRSEDTAMYYCARGTYYYGTRVFDYWGQGTLVTVSSGGSGGSGGSSYELTQPLSVSVALGQTARITCGGNNIGSKSVHWYQQKPGQAPVLVIYQDKKRPSGIPERFSGSNSGNTATLTISRAQAGDEADYYCQVWDDYIVLFGCGTKLTVLDKTHTCPPCPAPEFEGGPSVFLFPPKPKDTLMISRTPEVTCVVVAVSHEDPEVKFNWYVDGVEVHNAKTKPREEQYGSTYRVVSVLTVLHQDWLNGKEYKCKVSNKALPAPIEKTISKAKGQPREPQVYTLPPSREEMTKNQVSLSCAVKGFYPSDIAVEWESNGQPENNYKTTPPVLDSDGSFFLVSKLTVDKSRWQQGNVFSCSVMHEALHNHYTQKSLSLSPG
